Test results: patent US20230414735A1 (BIONTECH US, published 2023)

B1: FLLALWECSL (peptide)
peptide: FLLALWECSL
notes: MSH3(-1)
B2: YMFLKAESKI (peptide)
peptide: YMFLKAESKI
notes: GATA3 CSNH
B3: YLGNHMNIA (peptide)
peptide: YLGNHMNIA
notes: KIT, V654A
B4: YVMAYVMAGV (peptide)
peptide: YVMAYVMAGV
notes: HER2, G776insYVMA
B5: SLGNHLCPL (peptide)
peptide: SLGNHLCPL
notes: MLL2, CRLS
B6: SQIMSLWGL (peptide)
peptide: SQIMSLWGL
notes: NAB:STAT6 (variant 1 of Chmielecki et al.)
B7: FELLSTPPL (peptide)
peptide: FELLSTPPL
notes: MYC, P57S
B8: FLQEQYHEA (peptide)
peptide: FLQEQYHEA
notes: GATA3 YHEA
B9: SLMPAHWSI (peptide)
peptide: SLMPAHWSI
notes: JAK1(-1)
B10: LSLMPAHWSI (peptide)
peptide: LSLMPAHWSI
notes: JAK1(-1)
B11: FQNGKMALSA (peptide)
peptide: FQNGKMALSA
notes: FRG1B, L52S
B12: YVMAYVMAG (peptide)
peptide: YVMAYVMAG
notes: HER2, G776insYVMA
B13: LKKLRSPL (peptide)
peptide: LKKLRSPL
notes: also called SMAP1(-1)

Target: HLA-B08:01 (human)
Assay: pMHC-I dissociation half-life, 125I-b2m
Description: Briefly, synthetic genes encoding biotinylated MHC-I heavy and light chains are expressed in E. coli and purified from inclusion bodies using standard methods. The light chain (β2m) is radio-labeled with iodine (¹²⁵I), and combined with the purified MHC-I heavy chain and peptide of interest at 18° C. to initiate pMHC-I complex formation. These reactions are carried out in streptavidin coated microplates to bind th biotinylated MHC-I heavy chains to the surface and allow measurement of radiolabeled light chain to monitor complex formation. Dissociation is initiated by addition of higher concentations of unlabled light-chain and incubation at 37° C. Stability is defined as the length of time in hours it takes for half of the complexes to dissociate, as measured by scintillation counts

Going from B1 to B2, the “Stability (T1/2 (h))” value rises from 0 h to 0.4 h.

B3 and B4 are the same in “Stability (T1/2 (h))” value: 0 h for the first, 0 h for the second.

First: B5
Second: B6
The “Stability (T1/2 (h))” value of the first is higher: 0.5 h for the first, 0 h for the second.

B7 and B8 are the same in “Stability (T1/2 (h))” value: 0 h for the first, 0 h for the second.

B9 and B10 are the same in “Stability (T1/2 (h))” value: 0 h for the first, 0 h for the second.

Going from B11 to B12, the “Stability (T1/2 (h))” value rises from 0 h to 1.2 h.

Target: HLA-B08:01 (human)
Assay: competition with 125I probe peptide on purified HLA
Description: Immunol. 31:813, 1994; Sidney et al., in Current Protocols in Immunology, Margulies, Ed., John Wiley & Sons, New York, Section 18.3, 1998).
(§1) Following incubation, MHC-peptide complexes are separated from free peptide by gel filtration on 7.8 mm×15 cm TSK200 columns (TosoHaas 16215, Montgomeryville, PA). Because the large size of the radiolabeled peptide used for the DRB1*1501 (DR2w2(31) assay makes separation of bound from unbound peaks more difficult under these conditions, all DRB1*1501 (DR2w2(31) assays were performed using a 7.8 mm×30 cm TSK2000 column eluted at 0.6 mLs/min. The eluate from the TSK columns is passed through a Beckman 170 radioisotope detector, and radioactivity is plotted and integrated using a Hewlett-Packard 3396A integrator, and the fraction of peptide bound is determined.
(§2) Since under these conditions [label]<[HLA] and IC₅₀≥[HLA], the measured IC₅₀ values are reasonable approximations of the true KD values. […] For database purposes, and inter-experiment comparisons, relative binding values are compiled. These values can subsequently be converted back into IC₅₀ nM values by dividing the IC₅₀ nM of the positive controls for inhibition by the relative binding of the peptide of interest.

Going from B3 to B7, the IC50 rises from 872 nM to 3180 nM (3.6-fold). The first is the more potent here.

Target: HLA-B08:01 (human)
Assay: competition with 125I probe peptide for purified HLA class I
Description: as §1, §2

B13 showed an IC50 of 0.6 nM.
